According to article PMC3646547 (Nature communications, 2012):

Key:
crystal structure = biological target: the molecule itself; assay: crystal structure
MHF1;MHF2 [1] = biological target: T1, MHF1;MHF2 (human;human, UniProt Q8N2Z9;A8MT69 1-138;1-81, |); assay: fluorescence polarization
[2] = biological target: MHF1 K73A/R74A;MHF2;FANCM-F (human;human;human, UniProt Q8N2Z9;A8MT69;Q8IYD8 1-138;1-81;661-800, K73A;R74A||); assay: EMSA
[3] = biological target: MHF1;MHF2 K27A/K29A;FANCM-F (human;human;human, UniProt Q8N2Z9;A8MT69;Q8IYD8 1-138;1-81;661-800, |K27A;K29A|); assay: EMSA
MHF1;MHF2 [4] = biological target: T1, MHF1;MHF2; assay: EMSA
[5] = biological target: MHF1 K73A/R74A;MHF2;FANCM-F K675A/K676A (human;human;human, UniProt Q8N2Z9;A8MT69;Q8IYD8 1-138;1-81;661-800, K73A;R74A||K675A;K676A); assay: EMSA
[6] = biological target: MHF1 R12A/R18A/K73A/R74A;MHF2;FANCM-F K686A/R690A/R693A (human;human;human, UniProt Q8N2Z9;A8MT69;Q8IYD8 1-138;1-81;661-800, R12A;R18A;K73A;R74A||K686A;R690A;R693A); assay: EMSA
MHF1 1-107;MHF2;FANCM-F = MHF1 1-107;MHF2;FANCM-F (human;human;human, UniProt Q8N2Z9;A8MT69;Q8IYD8 1-107;1-81;661-800, ||); assay: not stated
[7] = biological target: MHF1 K73A/R74A;MHF2 R11A/K12A;FANCM-F K675A/K676A (human;human;human, UniProt Q8N2Z9;A8MT69;Q8IYD8 1-138;1-81;661-800, K73A;R74A|R11A;K12A|K675A;K676A); assay: EMSA
Sequence of MHF1 K73A/R74A;MHF2 R11A/K12A;FANCM-F K675A/K676A (A8MT69 whole entry R11A/K12A, chain 2 of 2): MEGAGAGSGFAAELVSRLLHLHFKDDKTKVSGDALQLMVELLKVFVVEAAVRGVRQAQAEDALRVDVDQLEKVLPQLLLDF
Sequence of MHF1 K73A/R74A;MHF2 R11A/K12A;FANCM-F K675A/K676A (Q8IYD8 661-800 K675A/K676A, chain 3 of 2): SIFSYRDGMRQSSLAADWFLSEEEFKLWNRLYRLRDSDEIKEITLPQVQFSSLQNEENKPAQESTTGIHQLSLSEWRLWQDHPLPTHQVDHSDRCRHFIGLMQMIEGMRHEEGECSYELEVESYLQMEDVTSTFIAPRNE

T1 sequence (A8MT69 whole entry, one chain of several): as the sequence (A8MT69 whole entry R11A/K12A, chain 2 of 2) above, with A11R, A12K counted along it
Sequence of MHF1 R12A/R18A/K73A/R74A;MHF2;FANCM-F K686A/R690A/R693A (Q8N2Z9 whole entry R12A/R18A/K73A/R74A, chain 1 of 3): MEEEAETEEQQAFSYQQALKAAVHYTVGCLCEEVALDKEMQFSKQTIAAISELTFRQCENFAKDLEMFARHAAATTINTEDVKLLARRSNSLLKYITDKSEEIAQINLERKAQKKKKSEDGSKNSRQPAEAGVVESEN
Sequence of MHF1 R12A/R18A/K73A/R74A;MHF2;FANCM-F K686A/R690A/R693A (A8MT69 whole entry, chain 2 of 3): as the sequence (A8MT69 whole entry R11A/K12A, chain 2 of 2) above, with A11R, A12K counted along it
Sequence of MHF1 R12A/R18A/K73A/R74A;MHF2;FANCM-F K686A/R690A/R693A (Q8IYD8 661-800 K686A/R690A/R693A, chain 3 of 3): as the sequence (Q8IYD8 661-800 K675A/K676A, chain 3 of 2) above, with A15K, A16K, K26A, R30A, R33A counted along it
Sequence of MHF1 K73A/R74A;MHF2;FANCM-F (A8MT69 whole entry, chain 2 of 2): as the sequence (A8MT69 whole entry R11A/K12A, chain 2 of 2) above, with A11R, A12K counted along it
Sequence of MHF1 K73A/R74A;MHF2;FANCM-F (Q8IYD8 661-800, chain 3 of 2): as the sequence (Q8IYD8 661-800 K675A/K676A, chain 3 of 2) above, with A15K, A16K counted along it
Sequence of MHF1 K73A/R74A;MHF2;FANCM-F K675A/K676A (A8MT69 whole entry, chain 2 of 2): as the sequence (A8MT69 whole entry R11A/K12A, chain 2 of 2) above, with A11R, A12K counted along it
Sequence of MHF1 K73A/R74A;MHF2;FANCM-F K675A/K676A (Q8IYD8 661-800 K675A/K676A, chain 3 of 2): as the sequence (Q8IYD8 661-800 K675A/K676A, chain 3 of 2) above
Sequence of MHF1 1-107;MHF2;FANCM-F (A8MT69 whole entry, chain 2 of 2): as the sequence (A8MT69 whole entry R11A/K12A, chain 2 of 2) above, with A11R, A12K counted along it
Sequence of MHF1 1-107;MHF2;FANCM-F (Q8IYD8 661-800, chain 3 of 2): as the sequence (Q8IYD8 661-800 K675A/K676A, chain 3 of 2) above, with A15K, A16K counted along it
Sequence of MHF1;MHF2 K27A/K29A;FANCM-F (A8MT69 whole entry K27A/K29A, chain 2 of 2): as the sequence (A8MT69 whole entry R11A/K12A, chain 2 of 2) above, with A11R, A12K, K27A, K29A counted along it
Sequence of MHF1;MHF2 K27A/K29A;FANCM-F (Q8IYD8 661-800, chain 3 of 2): as the sequence (Q8IYD8 661-800 K675A/K676A, chain 3 of 2) above, with A15K, A16K counted along it

B1: MHF1^1-107 (truncated MHF1 with the C-terminal 31 residues deleted) (domain or fragment, human, UniProt Q8N2Z9 1-107, looked up)
chain: MEEEAETEEQQRFSYQQRLKAAVHYTVGCLCEEVALDKEMQFSKQTIAAISELTFRQCENFAKDLEMFARHAKRTTINTEDVKLLARRSNSLLKYITDKSEEIAQIN
binding result (crystal structure): binds

B2: 59 bp dsDNA (FPA) (dsDNA)
DNA 1: ACGCTGCCGAATTCTACCAGTGCCTTGCTAGGACATCTTTGCCCACCTGCAGGTTCACC
DNA 2: GGTGAACCTGCAGGTGGGCAAAGATGTCCTAGCAAGGCACTGGTAGAATTCGGCAGCGT
binding result (MHF1;MHF2 [1]): binds

B3: 59 bp dsDNA (EMSA) (dsDNA)
DNA 1: ACGCTGCCGAATTCTACCAGTGCCTTGCTAGGACATCTTTGCCCACCTGCAGGTTCACC
DNA 2: GGTGAACCTGCAGGTGGGCAAAGATGTCCTAGCAAGGCACTGGTAGAATTCGGCAGCGT
binding result [2]: binds
binding result [3]: binds
binding result (MHF1;MHF2 [4]): binds
binding result [5]: no binding
binding result [6]: no binding
binding result (MHF1 1-107;MHF2;FANCM-F): no binding
binding result [7]: no binding
